Experimental data taken from patent publication US20210403586A1, “MUTANT OF RANKL AND PHARMACEUTICAL COMPOSITION COMPRISING SAME FOR PREVENTING OR TREATING OSTEOPOROSIS” (INDUSTRY-ACADEMIC COOPERATION FOUNDATION CHOSUN UNIVERSITY, priority 2018, published 2021).

What was measured:
isolated spleen cells = assay: Th1/Th2 cytokine secretion of isolated spleen cells; type: cell-based, mouse; conditions: culture supernatant of Sham and IM splenocytes stimulated with sRANKL or mRANKL-MT3
Source text: To determine whether mRANKL-MT3 immunization influences Th1 and Th2 cytokine production, we evaluated the effects of mRANKL-MT3 on IL-4 and IL-10 secretion, which are markers for Th2 responses, and IFN-γ, a marker for Th1 responses, in the culture supernatant of isolated spleen cells stimulated with sRANKL or mRANKL-MT3 (FIG. 8C).

BMMs = assay: F-actin ring formation assay; type: cell-based, mouse; conditions: mRANKL-MT3 150 ng/mL
Procedure: We used bone-resorption and F-actin ring formation assays to investigate osteoclast activity. To observe bone resorption in vitro, BMMs were cultured in Corning Osteo Assay Surface 96-well Multiple Well Plates (Sigma) with 30 ng/mL M-CSF and 75 ng/mL sRANKL (soluble RANKL; R&D Systems) or isolated RANKL for 6 days. Then, the plates were washed with pure water. To monitor actin ring formation, BMMs were grown on glass slides. After culture, the cells were fixed with 4% formalin, permeabilized with 0.5% Triton X100 in PBS for 5 min at room temperature, and incubated with 0.5 mg/mL TRITC-labelled phalloidin for 30 min. The cells were then rinsed with PBS. F-actin rings were visualized using a fluorescence ECLIPSE Ts2R microscope (Nikon, Tokyo, Japan).

BALB/c mice = assay: Bone destruction by injected mtRANKL, micro-CT; type: in vivo, mouse; conditions: subcutaneous 1.0 mg/kg three times a week
Procedure: (§1) The right femur of each mouse subjected to each experiment was incised and CT imaging was performed using a Quantum GX pCT imaging system (PerkinElmer, Hopkinton, Mass., USA) located at the Korea Basic Science Institute in Gwangju. As for the X-ray source, the field of view was set to 45 mm, 90 kV and […] (voxel size, 90 μm; scanning time, 14 minutes). CT imaging was performed using a Quantum GX 3D Viewer software. After scanning, image segmentation was performed in Analyze (AnalyzeDirect, Overland Park, Kans., USA). Briefly, the legs were segmented using semi-automatic and manual tools (e.g., object extractor, area expansion, and object separator) using volume editing tools. Then, a 3D rendering of the leg was created, and bone mineral density (BMD), bone volume (BV), bone volume percentage (%), and trabecular thickness were calculated using the ROI tools.
To investigate the bone-destructive effect of mtRANKL, 4-week-old male BALB/c mice (Orient Bio) were placed in a cage capable of accommodating up to 4 animals in a light-controlled environment ([…]) and provided with autoclaved water and both whole and powdered rodent diet (Purina, St. Louis, Mo., USA). Starting from 6 weeks of age, 9 mice were randomly divided into three groups, and each group was subcutaneously injected with wild-type RANKL (Amgen, Thousand Oaks, Calif., USA), mtRANKL purified in Reference Example 2, and saline three times a week (1.0 mg/kg). The trabecular bone in femoral neck was examined by Micro-CT analysis described in Reference Example 6.

RANKL = assay: ELISA of serum RANKL levels; type: in vivo, mouse; conditions: wtRANKL 2.0 mg/kg s.c. to non-immunized mice, or to mice immunized with mtRANKL
Procedure: A commercially available enzyme immunoassay kit (R & D Systems, Minn., USA) was used to measure RANKL levels in the serum of mice according to the manufacturer's protocol. Absorbance (450 nm) was measured in a colorimetric microplate reader (BioTek, Winooski, USA). The reading of the absorbance was then subtracted from the reading at 570 nm.
(§2) 17-week-old […] BALB/c mice were equally divided into 3 groups. The group was divided into a negative control group in which PBS was intraperitoneally injected, a group in which only wtRANKL was injected, and a group in which wtRANKL was injected after immunization with mtRANKL for 52 days. mtRANKL was injected after mixing with an aluminum hydroxide adjuvant. The immunization process started with 1st immunization of mtRANKL at 52 days, 2nd immunization at 39 days, 3rd immunization at 14 days each before injection of wtRANKL, and a total of 3 immunizations was performed. The amount of mtRANKL was 0.2 mg per mouse.
(§3) After 52 days, PBS was injected into the negative control group and wtRANKL was injected into the other two groups. Next day, wtRANKL was injected once more. wtRANK was subcutaneously injected (2.0 mg/kg). Serum was collected to determine the titer of anti-RANKL antibody. Then, after extracting tibias, the adhesive soft tissues of tibias were removed.

wtRANKL-induced mouse = assay: mtRANKL immunization in wtRANKL-induced osteoporosis mice, micro-CT; type: in vivo
Procedure: as §1, §2, §3
To examine whether RANKL has a bone destruction effect when RANKL was injected after immunization with mtRANKL, micro-CT analysis was performed by the method of Reference Example 6.

[1] = wtRANKL-injected mice vs mtRANKL-immunized mice with wtRANKL injection

B1: mRANKL-MT3: mouse RANKL mutant: K180R, D189I, R190K, H223F, H224Y; nucleic acid SEQ ID NO: 3 (protein, UniProt O35235 158-316, looked up, variant K180R D189I R190K H223F H224Y)
chain: KPEAQPFAHLTINAASIPSGSHRVTLSSWYHIKGWAKISNMTLSNGKLRVNQDGFYYLYANICFRFYETSGSVPTDYLQLMVYVVKTSIKIPSSHNLMKGGSTKNWSGNSEFHFYSINVGGFFKLRAGEEISIQVSNPSLLDPDQDATYFGAFKVQDID
IFN-γ levels (isolated spleen cells): no significant differences | IL-4 and IL-10 secretion (isolated spleen cells): significantly increased | F-actin ring formation (BMMs): no resorption pits or F-actin rings were observed | trabecular bone by Micro-CT (osteoporosis) (BALB/c mice): no significant change was observed | level of RANKL in the blood (ELISA) (RANKL): eliminated | bone volume and percentage of bone volume (wtRANKL-induced mouse; compared with PBS-treated mice): maintained at similar levels | BMD of tibias (wtRANKL-induced mouse; [1]): 795.8 ± 11.9 mg/mL | trabecular bone architecture of proximal tibias (micro-CT) (wtRANKL-induced mouse; [1]): thicker fibers and higher density than the wtRANKL-injected mice
